± gives the uncertainty stated by the source.
Experiment: self-splicing fitness, log relative to wild type (ln ratio); higher = more splicing; Tetrahymena group I intron in knt gene, E. coli kanamycin selection, DiMSum; sequences stand for … in CUCUCU…GGAGGGAAAAGUUAUCAGGCAUGCACCUGGUAGCUAGUCUUUAAACCAAUAGAUUGCAUCGGUUUAAAAGGCAAGACCGUCAAAUUGCGGGAAAGGGGUCAACAGCCGUUCAGUACCAAGUCUCAGGGGAAACUUUGAGAUGGCCUUGCAAAGGGUAUGGUAAUAAGCUGACGGACAUGGUCCUAACCACGCAGCCAAGUCCUAAGUCAACAGAUCUUCUGUUGAUAUGGAUGCAGUUCACAGACUAAAUGUCGGUCGGGGAAGAUGUAUUCUUCUCAUAAGAUAUAGUCGGACCUCUCCUUAAUGGGAGCUAGCGGAUGAAGUGAUGCAACACUGGAGCCGCUGGGAACUAAUUUGUAUGCGAAAGUAUAUUGAUUAGUUUUGGAGUACUCGUGGUCG
Summary of the method: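 Pooled colonies went to amplicon sequencing on an Illumina HiSeq 2500 after six replicate transformations. The plates were LB agar with 100 μg/mL carbenicillin, 50 μM IPTG and 0.2% rhamnose, with or without 25 μg/mL kanamycin, incubated overnight at 37°C or 30°C. The E. coli BL21(DE3) library had all eight P1ex-region intron nucleotides randomised, the intron placed in the knt kanamycin-resistance gene on pET-22b(+). DiMSum fitness is the error-weighted combination of replicate fold changes, kanamycin against none, normalised to wild type.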

Sequence | self-splicing fitness (ln) (30 °C) | self-splicing fitness (ln) (37 °C)
AUCCAGCAAUAUUACGGAUA | -3.19 ± 0.18 | -0.948 ± 0.12
AUCCAGCAAUAUUACGGUCA | -0.209 ± 0.065 | 0.168 ± 0.072
AUCCAGCAAUAUUACGGUCG | -0.645 ± 0.058 | 0.12 ± 0.089
AUCCAGCAAUAUUACGUUGC | -3.87 ± 0.14 | -2.86 ± 0.15
AUCGAGCAAUAUUACGAACC | -0.925 ± 0.36 | -0.838 ± 0.4
AUCGAGCAAUAUUACGAGAG | -3.84 ± 0.39 | -1.14 ± 0.19
AUCGAGCAAUAUUACGAUUU | -1.42 ± 0.11 | -0.535 ± 0.13
AUCGAGCAAUAUUACGCACC | -1.65 ± 0.18 | 
AUCGAGCAAUAUUACGCCUC | -2.06 ± 0.39 | -1.98 ± 0.45
AUCGAGCAAUAUUACGGAGA | -2.8 ± 0.22 | -2.7 ± 0.29
AUCGAGCAAUAUUACGGAGU | -3.83 ± 0.31 | -2.42 ± 0.23
AUCGAGCAAUAUUACGGGUU | -3.65 ± 0.23 | -2.32 ± 0.2
AUCGAGCAAUAUUACGGUCU | -3.03 ± 0.2 | -1.77 ± 0.2
AUCGAGCAAUAUUACGUCGA | -2.83 ± 0.19 | -2.03 ± 0.19
AUCUAGCAAUAUUACGAACC | -1.08 ± 0.18 | -0.855 ± 0.2
AUCUAGCAAUAUUACGAACG | -0.816 ± 0.12 | -0.644 ± 0.22
AUCUAGCAAUAUUACGAAUC | -4.05 ± 0.36 | -3.15 ± 0.27
AUCUAGCAAUAUUACGACAC | -1.02 ± 0.11 | 0.13 ± 0.13
AUCUAGCAAUAUUACGAGAU | -2.88 ± 0.26 | -2.31 ± 0.34
AUCUAGCAAUAUUACGAGCU | -2.29 ± 0.17 | -0.565 ± 0.17
AUCUAGCAAUAUUACGAGUG | -1.41 ± 0.078 | -1.32 ± 0.12
AUCUAGCAAUAUUACGCAGA | -3.1 ± 0.49 | -1.82 ± 0.23
AUCUAGCAAUAUUACGCCCU | -0.479 ± 0.19 | 0.46 ± 0.19
AUCUAGCAAUAUUACGCUCG | -0.792 ± 0.091 | -0.0276 ± 0.12
AUCUAGCAAUAUUACGGACU | 0.0775 ± 0.11 | 0.443 ± 0.12
AUCUAGCAAUAUUACGGAGG | -1.93 ± 0.14 | -1.96 ± 0.23

Sequence | self-splicing fitness (ln) (30 °C) | self-splicing fitness (ln) (37 °C)
AUCUAGCAAUAUUACGGCAA | -0.584 ± 0.14 | -0.113 ± 0.14
AUCUAGCAAUAUUACGGCCA | -1.06 ± 0.12 | -0.879 ± 0.13
AUCUAGCAAUAUUACGGGCG | -0.656 ± 0.1 | -0.967 ± 0.11
AUCUAGCAAUAUUACGGGGG | -1.65 ± 0.11 | -1.9 ± 0.15
AUCUAGCAAUAUUACGGGUC | -5.59 ± 0.41 | -2.49 ± 0.23
AUCUAGCAAUAUUACGGUUA | -0.746 ± 0.15 | -0.055 ± 0.12
AUCUAGCAAUAUUACGUACA | -1.73 ± 0.15 | 0.464 ± 0.17
AUCUAGCAAUAUUACGUCCA | -0.699 ± 0.14 | 0.279 ± 0.12
AUCUAGCAAUAUUACGUCCC | -0.434 ± 0.3 | -0.129 ± 0.27
AUCUAGCAAUAUUACGUCUU | -0.776 ± 0.077 | 0.147 ± 0.1
AUCUAGCAAUAUUACGUGUG | -2.16 ± 0.1 | -1.49 ± 0.12
AUCUAGCAAUAUUACGUUAU | -1.79 ± 0.11 | -1.46 ± 0.11
AUCUAGCAAUAUUACGUUCU | -1.52 ± 0.09 | -0.607 ± 0.11
AUCUAGCAAUAUUACGUUUA | -2.26 ± 0.13 | -2.3 ± 0.13
AUGAAGCAAUAUUACGAGGC | -4.11 ± 0.27 | -2.77 ± 0.23
AUGAAGCAAUAUUACGAGUA | -2.12 ± 0.079 | -0.848 ± 0.088
AUGAAGCAAUAUUACGAGUG | -1.22 ± 0.056 | -0.514 ± 0.081
AUGAAGCAAUAUUACGAUAC | -0.832 ± 0.11 | -1.5 ± 0.17
AUGAAGCAAUAUUACGCCGA | -0.724 ± 0.11 | -0.149 ± 0.15
AUGAAGCAAUAUUACGCGCU | -0.561 ± 0.082 | 0.35 ± 0.11
AUGAAGCAAUAUUACGCUCU | -0.29 ± 0.15 | 0.111 ± 0.18
AUGAAGCAAUAUUACGGAAG | -1.17 ± 0.1 | -0.408 ± 0.16
AUGAAGCAAUAUUACGGAGA | -2.55 ± 0.33 | -0.873 ± 0.23
AUGAAGCAAUAUUACGGAUU | -1.08 ± 0.078 | -0.689 ± 0.1
AUGAAGCAAUAUUACGGGGG | -3.12 ± 0.24 | -2.49 ± 0.28
AUGAAGCAAUAUUACGUAUA | -1.53 ± 0.11 | -0.647 ± 0.11

Sequence | self-splicing fitness (ln) (30 °C) | self-splicing fitness (ln) (37 °C)
AUGAAGCAAUAUUACGUGGG | -2.55 ± 0.11 | -2.67 ± 0.14
AUGAAGCAAUAUUACGUUCG | 0.356 ± 0.086 | 0.464 ± 0.12
AUGAAGCAAUAUUACGUUUU | -2.36 ± 0.12 | -1.7 ± 0.15
AUGCAGCAAUAUUACGAAUA | -2.68 ± 0.2 | -1.68 ± 0.16
AUGCAGCAAUAUUACGACGA | -0.531 ± 0.081 | -0.65 ± 0.089
AUGCAGCAAUAUUACGACUU | 0.39 ± 0.068 | 0.224 ± 0.075
AUGCAGCAAUAUUACGAGUA | -2.98 ± 0.19 | -1.53 ± 0.13
AUGCAGCAAUAUUACGAUAC | -2.96 ± 0.38 | 
AUGCAGCAAUAUUACGAUGC | -2.06 ± 0.14 | -0.432 ± 0.14
AUGCAGCAAUAUUACGCACC | -1.11 ± 0.18 | -0.696 ± 0.21
AUGCAGCAAUAUUACGCAGA | -2.98 ± 0.16 | -1.71 ± 0.12
AUGCAGCAAUAUUACGCAUG | -3.28 ± 0.35 | -2.66 ± 0.31
AUGCAGCAAUAUUACGCAUU | -3.49 ± 0.11 | -3.37 ± 0.19
AUGCAGCAAUAUUACGCCAA | -1.09 ± 0.12 | -0.608 ± 0.14
AUGCAGCAAUAUUACGCCUG | -2.61 ± 0.35 | 
AUGCAGCAAUAUUACGCGGC | -3.79 ± 0.47 | 
AUGCAGCAAUAUUACGGCAA | 0.0857 ± 0.12 | 0.0922 ± 0.12
AUGCAGCAAUAUUACGGCGG | -1.76 ± 0.068 | -0.59 ± 0.081
AUGCAGCAAUAUUACGGGAU | -2.25 ± 0.088 | -1.06 ± 0.097
AUGCAGCAAUAUUACGGGGG | -3.09 ± 0.18 | -1.9 ± 0.16
AUGCAGCAAUAUUACGGGGU | -3.71 ± 0.17 | -2.88 ± 0.18
AUGCAGCAAUAUUACGGUGA | -0.911 ± 0.093 | -0.872 ± 0.1
AUGCAGCAAUAUUACGGUUA | -1.11 ± 0.079 | -0.0917 ± 0.071
AUGCAGCAAUAUUACGUACC | -0.541 ± 0.084 | 0.409 ± 0.1

From the supplement of paper PMC7877785
